The target of assay [1] is T1, HLA-A24 molecule on the cell surface (HLA-A*2402) (human).
T1 construct: also called HLA-A24 antigen
Briefly: HLA-A24 stabilisation assay on T2-A24 cells, flow cytometry with C7709A2. On the technique in general: In flow cytometry, cells or beads pass a laser one at a time.
Method: T2-A24 cells, which are HLA-A24-expressing T2 cells, were preincubated in a CO₂ incubator at 27° C. overnight. The cells collected were resuspended in Opti-MEM and plated on a round bottom 96 well plate (Corning) with about 1×10⁵ cells/200 μL per well. A subject peptide was added at concentrations of 0.33 μM, 1 μM, and 10 μM, and incubation was carried out in a CO₂ incubator at 27° C. for 3 hours and subsequently at 37° C. for 2.5 hours. Subsequently, the cells were subjected to centrifugation (380 g, 5 minutes) as they were on the plate, resuspended in 100 μL of a C7709A2 monoclonal antibody-producing hybridoma culture supernatant, and incubated on ice for 45 to 60 minutes. The cells were washed with ice-cooled PBS and then incubated together with an FITC-conjugated goat anti-mouse IgG antibody (KPL, Gaithersburg, Md.) on ice for 30 minutes.

Assay [2] has as its target T1, HLA-A24 molecule on the cell surface …. Briefly: not clear: FIG. 7 has no binding assay panel.

Turning to HWNDTRPAHF (also called HF10) [PVT1-derived natural antigen peptide of SEQ ID No: 1 (HWNDTRPAHF)], the binding result in assay [1] is “binds”.
As to IFQGNVHNF (Synthetic peptide) [SNRNP40-derived natural peptide of SEQ ID No: 4 (IFQGNVHNF)], in assay [2], the binding result is reported as “binds”.
For the molecule RYGNVSHF (Synthetic peptide; also called RF8) [SUV39H2-derived natural antigen peptide of SEQ ID No: 2 (RYGNVSHF)], the binding result in assay [1] is given as “binds”.
